The target in the experiment is formyl peptide receptor-like 1 (FPRL1) (human) (UniProt P25090). Nature of the experiment: cell-based or functional assay.
Chain of UniProt P25090 (P25090 whole entry): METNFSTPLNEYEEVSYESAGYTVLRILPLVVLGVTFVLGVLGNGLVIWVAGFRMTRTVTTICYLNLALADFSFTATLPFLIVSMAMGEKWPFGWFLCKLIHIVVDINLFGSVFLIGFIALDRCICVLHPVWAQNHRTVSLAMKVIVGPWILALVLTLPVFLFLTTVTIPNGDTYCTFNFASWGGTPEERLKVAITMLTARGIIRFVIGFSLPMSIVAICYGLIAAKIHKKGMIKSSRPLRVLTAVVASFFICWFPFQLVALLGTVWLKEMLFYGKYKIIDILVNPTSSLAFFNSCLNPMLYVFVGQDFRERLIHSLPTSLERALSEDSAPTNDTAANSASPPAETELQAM

In the case of “LL-37 peptide (from UniProt P49913 134-170)”, the decrease in proliferation of HaCaT cells treated with LL-37 after pretreatment with pertussis toxin turned out to be 50%.
